From patent US20100240040A1, “METHOD FOR SCREENING FOR SELECTIVE MODULATOR OF THE NF-KB PATHWAY ACTIVATION” (INSTITUT PASTEUR, priority 2007, published 2010)

Target: T1, Biot-CC2-LZ (Mus musculus, UniProt O88522)
T1 construct: made in house; host or cells: chemical synthesis
Assay: HTRF assay, complex with Biot-CC2-LZ (negative and positive controls)
Format: binding
Details: 50 nM His-tagged protein with 50 nM Biot-CC2-LZ, Strept-Eu 2 nM, AntiHis-XL 7 nM
Source text: The Homogeneous Time Resolved Fluorescence (HTRF®) assay reagents anti-(His)6 monoclonal antibody labeled with XL665 (MABHis6-XL) and streptavidin-Europium cryptate (streptavidin-EuK) were purchased from CIS-Bio. The His-CC2-LZ peptide (SEQ ID NO: 30 and 31) was purified as described in Agou et al., 2004a and the biotin tagged CC2-LZ peptide (SEQ ID NO: 28 and 29) was chemically synthezised as described in Wyler et al., 2007.
In HTRF experiments, the pure His-CC2-LZ protein was labeled by anti-His-XL665 mAb and biot-CC2-LZ was labeled by streptavidin-EuK. Dimerization of His-CC2-LZ and Biot-CC2-LZ leads the donor (Steptavidin-EuK) and the acceptor (anti-His-XL665) into close proximity. Upon excitation of Europium cryptate at 320 nm, FRET occurs between these two fluorophores, and XL665 re-emits a specific long-lived fluorescence at 665 nm.
All experiments were carried out in a black microplate Greiner (200 μl) at 25° C. The excitation wavelength was 320 nm and the fluorescence emissions were measured at 620 nm and at 665 nm to normalize the specific signal. Fluorescence emission was recorded at both wavelengths after an 50 μs delay, which reduces background noise introduced by the media and the free acceptor molecules. The FRET signal is calculated using the following equation:
ΔF=[(R−Rneg)/Rneg]*100 (1) […]

FRET (ΔF %): ≦0%
B1: His-CC2-LZ: six his-tagged CC2-LZ peptide, recombinant, SEQ ID NO: 30 (humanised 31) (protein)
chain: MGSHHHHHHSSGLVPRGSHMASLEDLRQQLQQAEEALVAKQELIDKLKEEAEQHKIVMETVPVLKAQADIYKADFQAERHAREKLVEKKEYLQEQLEQLQREFNKL
